{"source": "paper PMC3669286", "biological_target": "Smad3 (UniProt P84022)", "test": "co-immunoprecipitation, blot for 14-3-3σ", "details": "reference: wild type; sites S69,S74"}
{"substance": "14-3-3σ (from UniProt P31947) S69/74A", "values": [{"measurement": "binding against the reference", "value": "lost"}]}
